The text below walks through data of paper PMC4547098 (eLife, 2015).

Series [1] deals with the molecule itself. Nature of the series: crystal structure; Pikp-HMA alone; 0.1 M MIB buffer pH 5.0, 25% PEG 1500; dimer in the crystal.
For series [2], the target named is AVR-PikD with non-cleavable C-terminal 6xHis tag (pOPINE) (Magnaporthe oryzae, UniProt C4B8B8 22-113). Description: SPR; Biacore T200, 25°C, multi-cycle kinetics; […]; 50 mM HEPES pH 7.5, 150 mM NaCl, 0.1% Tween 20; […]. Conditions: both partners purified. A general note: Surface plasmon resonance follows binding to a sensor surface in real time, without labels.

B1: Pikp-HMA domain made in Sf9 cells for crystallisation (domain or fragment, rice (Oryza sativa), UniProt E9KPB5 186-258, looked up)
chain: GLKQKIVIKVAMEGNNCRSKAMALVASTGGVDSVALVGDLRDKIEVVGYGIDPIKLISALRKKVGDAELLQVS
notes: also called Pikp1-HMA; not shown: 6xHis+SUMO, N-terminal, cleaved
The stoichiometry N is a count of units in the complex or per binding partner. As for B1, the “stoichiometry N” value in series [1] was determined as 2.

B2: Pikp-HMA domain (HMA integrated domain of the rice NLR Pikp-1) (domain or fragment)
chain: B1 chain
notes: also called Pikp1-HMA; Pikp-1 HMA; not shown: 6xHis+SUMO, N-terminal, cleaved
Usually Kd stands for a measure of binding affinity in units of concentration. Higher therefore signals lower affinity. B2 yielded a Kd in series [2] of 31 ± 2 nM.
